According to US11325966:

How the values were obtained:
Assay in all cases: cell-based or functional assay
[1] = target: HIV-1 Env of pseudovirus WITO4160.33 (HIV-1)
[2] = target: HIV-1 Env of pseudovirus 6540.v4.c1 (HIV-1)
[3] = target: HIV-1 Env of pseudovirus Ce1176_A3 (HIV-1)
[4] = target: HIV-1 Env of pseudovirus A07412M1.vrc12 (HIV-1)
[5] = target: HIV-1 Env of pseudovirus Q461.e2 (HIV-1)
[6] = target: HIV-1 Env of pseudovirus 3817.v2.c59 (HIV-1)
[7] = target: HIV-1 Env of pseudovirus 89-F1_2_25 (HIV-1)
[8] = target: HIV-1 Env of pseudovirus 3103.v3.c10 (HIV-1)
[9] = target: HIV-1 Env of pseudovirus X1632_S2_B10 (HIV-1)
[10] = target: HIV-1 Env of pseudovirus CAP45.2.00.G3 (HIV-1)
[11] = target: HIV-1 Env of pseudovirus BF1266.431a (HIV-1)
[12] = target: HIV-1 Env of pseudovirus Ce703010054_2A2 (HIV-1)
[13] = target: HIV-1 Env of pseudovirus 6535.3 (HIV-1)
[14] = target: HIV-1 Env of pseudovirus HIV-0013095-2.11 (HIV-1)
[15] = target: HIV-1 Env of pseudovirus P0402_c2_11 (HIV-1)
[16] = target: HIV-1 Env of pseudovirus T255-34 (HIV-1)
[17] = target: HIV-1 Env of pseudovirus 263-8 (HIV-1)
[18] = target: HIV-1 Env of pseudovirus 620345.c01 (HIV-1)
[19] = target: HIV-1 Env of pseudovirus P1981_C5_3 (HIV-1)
[20] = target: HIV-1 Env of pseudovirus Ce0393_C3 (HIV-1)
[21] = target: HIV-1 Env of pseudovirus 6952.v1.c20 (HIV-1)
[22] = target: HIV-1 Env of pseudovirus R3265.c06 (HIV-1)
[23] = target: HIV-1 Env of pseudovirus 6545.v4.c1 (HIV-1)
[24] = target: HIV-1 Env of pseudovirus Q259.d2.17 (HIV-1)
[25] = target: HIV-1 Env of pseudovirus HIV-16055-2.3 (HIV-1)
[26] = target: HIV-1 Env of pseudovirus CNE53 (HIV-1)
[27] = target: HIV-1 Env of pseudovirus 249M B10 (HIV-1)
[28] = target: HIV-1 Env of pseudovirus 3415.v1.c1 (HIV-1)
[29] = target: HIV-1 Env of pseudovirus Du422.1 (HIV-1)
[30] = target: HIV-1 Env of pseudovirus SC422661.8 (HIV-1)
[31] = target: HIV-1 Env of pseudovirus 246F C1G (HIV-1)
[32] = target: HIV-1 Env of pseudovirus 1006_11_C3_1601 (HIV-1)
[33] = target: HIV-1 Env of pseudovirus R1166.c01 (HIV-1)
[34] = target: HIV-1 Env of pseudovirus 62357_14_D3_4589 (HIV-1)
[35] = target: HIV-1 Env of pseudovirus 191955_A11 (HIV-1)
[36] = target: HIV-1 Env of pseudovirus THRO4156.18 (HIV-1)
[37] = target: HIV-1 Env of pseudovirus X1254_c3 (HIV-1)
[38] = target: HIV-1 Env of pseudovirus C2101.c01 (HIV-1)
[39] = target: HIV-1 Env of pseudovirus MS208.A1 (HIV-1)
[40] = target: HIV-1 Env of pseudovirus 3365.v2.c2 (HIV-1)

With BG18 IgG (354BG18) (antibody) the IC50 in TZM-bl assay [1] was 0.018 µg/mL, the IC80 in TZM-bl assay [1] was 0.25 µg/mL and the IC50 in TZM-bl assay [2] was 28.2 µg/mL. The IC80 in TZM-bl assay [2] was > 30 µg/mL, the IC50 in TZM-bl assay [3] was 0.004 µg/mL and the IC80 in TZM-bl assay [3] was 0.012 µg/mL. For the same substance, the IC50 in TZM-bl assay [4] was 0.081 µg/mL, the IC80 in TZM-bl assay [4] was 1.72 µg/mL and the IC50 in TZM-bl assay [5] was > 30 µg/mL. For the same substance, the IC80 in TZM-bl assay [5] was > 30 µg/mL, the IC50 in TZM-bl assay [6] was 0.219 µg/mL and the IC80 in TZM-bl assay [6] was 1.06 µg/mL. The IC50 in TZM-bl assay [7] was > 30 µg/mL, the IC80 in TZM-bl assay [7] was > 30 µg/mL and the IC50 in TZM-bl assay [8] was 0.002 µg/mL. The IC80 in TZM-bl assay [8] was 0.005 µg/mL, the IC50 in TZM-bl assay [9] was > 30 µg/mL and the IC80 in TZM-bl assay [9] was > 30 µg/mL. For the same substance, the IC50 in TZM-bl assay [10] was > 30 µg/mL, the IC80 in TZM-bl assay [10] was > 30 µg/mL and the IC50 in TZM-bl assay [11] was > 30 µg/mL. The IC80 in TZM-bl assay [11] was > 30 µg/mL, the IC50 in TZM-bl assay [12] was > 30 µg/mL and the IC80 in TZM-bl assay [12] was > 30 µg/mL. For the same substance, the IC80 in TZM-bl assay [13] was 0.005 µg/mL, the IC50 in TZM-bl assay [14] was 10.5 µg/mL and the IC80 in TZM-bl assay [14] was 30 µg/mL. For the same substance, the IC50 in TZM-bl assay [15] was 0.005 µg/mL, the IC80 in TZM-bl assay [15] was 0.029 µg/mL and the IC50 in TZM-bl assay [16] was > 30 µg/mL. The IC80 in TZM-bl assay [16] was > 30 µg/mL, the IC50 in TZM-bl assay [17] was 1.38 µg/mL and the IC80 in TZM-bl assay [17] was 7.55 µg/mL. The IC50 in TZM-bl assay [18] was > 30 µg/mL, the IC80 in TZM-bl assay [18] was > 30 µg/mL and the IC50 in TZM-bl assay [19] was 0.006 µg/mL. The IC80 in TZM-bl assay [19] was 0.019 µg/mL, the IC50 in TZM-bl assay [20] was > 30 µg/mL and the IC80 in TZM-bl assay [20] was > 30 µg/mL. For the same substance, the IC50 in TZM-bl assay [21] was 0.005 µg/mL, the IC80 in TZM-bl assay [21] was 0.011 µg/mL and the IC50 in TZM-bl assay [22] was > 30 µg/mL. For the same substance, the IC80 in TZM-bl assay [22] was > 30 µg/mL, the IC50 in TZM-bl assay [23] was > 30 µg/mL and the IC80 in TZM-bl assay [23] was > 30 µg/mL. The IC50 in TZM-bl assay [24] was > 30 µg/mL, the IC80 in TZM-bl assay [24] was > 30 µg/mL and the IC50 in TZM-bl assay [25] was > 30 µg/mL. The IC80 in TZM-bl assay [25] was > 30 µg/mL, the IC50 in TZM-bl assay [26] was 0.003 µg/mL and the IC80 in TZM-bl assay [26] was 0.011 µg/mL. The IC50 in TZM-bl assay [27] was > 30 µg/mL, the IC80 in TZM-bl assay [27] was > 30 µg/mL and the IC50 in TZM-bl assay [28] was 0.023 µg/mL. For the same substance, the IC80 in TZM-bl assay [28] was 0.087 µg/mL, the IC50 in TZM-bl assay [29] was 0.009 µg/mL and the IC80 in TZM-bl assay [29] was 0.057 µg/mL. For the same substance, the IC50 in TZM-bl assay [30] was 0.005 µg/mL, the IC80 in TZM-bl assay [30] was 0.021 µg/mL and the IC50 in TZM-bl assay [31] was 0.034 µg/mL. For the same substance, the IC80 in TZM-bl assay [31] was 0.257 µg/mL, the IC80 in TZM-bl assay [32] was 0.004 µg/mL and the IC50 in TZM-bl assay [33] was > 30 µg/mL. The IC80 in TZM-bl assay [33] was > 30 µg/mL, the IC50 in TZM-bl assay [34] was 3.01 µg/mL and the IC80 in TZM-bl assay [34] was > 30 µg/mL. For the same substance, the IC50 in TZM-bl assay [35] was > 30 µg/mL, the IC80 in TZM-bl assay [35] was > 30 µg/mL and the IC50 in TZM-bl assay [36] was > 30 µg/mL. The IC80 in TZM-bl assay [36] was > 30 µg/mL, the IC50 in TZM-bl assay [37] was 0.004 µg/mL and the IC80 in TZM-bl assay [37] was 0.012 µg/mL. For the same substance, the IC50 in TZM-bl assay [38] was > 30 µg/mL, the IC80 in TZM-bl assay [38] was > 30 µg/mL and the IC50 in TZM-bl assay [39] was > 30 µg/mL. For the same substance, the IC80 in TZM-bl assay [39] was > 30 µg/mL, the IC50 in TZM-bl assay [40] was 0.013 µg/mL and the IC80 in TZM-bl assay [40] was 0.037 µg/mL.
